For this assay, the target named is HLA-DR, human (human). Description: cell-based or functional assay.

Lym-1 CAR: the lysis rate (LDH cytotoxicity assay, Raji target cells) was determined as 22%. In turn, Lym-2 CAR gave a lysis rate (LDH cytotoxicity assay, Raji target cells) of 22%.

Source of the values: patent publication EP3515493A1.
